Assay results published in patent US20210190796A1 (AB STUDIO, published 2021).

Assays:
Aβ (1-42) peptide [1] = molecular target: T1, Aβ (1-42) peptide (UniProt P05067 672-713); test: ELISA, Aβ(1-42) coated
T1 construct: domain: Aβ (1-42) peptide; also called Aβ42
Protocol: (§1) Briefly, an ELISA plate was coated with an Aβ (1-42) peptide at 1 μg/mL in a coating buffer (0.2M sodium carbonate-bicarbonate buffer, pH 9.4), 100 μL/well at 4° C. overnight. The Aβ peptide was removed and the plate was washed three times with 250 μL/well of a washing buffer (PBST). The plate was then blocked with 200 μL/well of a blocking buffer (1% BSA in PBST) for 1 hour at room temperature, and washed two times with 250 μL/well of the washing buffer. To each well of the plate was added 100 μL of the antibody sample (3× serial dilution in the range of 3 ng/mL to 20 μg/mL) and incubated at room temperature for 1 hour. […] The plate was then washed three times with 250 μL/well of the washing buffer. HRP substrate (Amplex Red and H₂O₂) was prepared freshly with a developing buffer (3.6 mM Na₂HPO₄, 1.4 mM NaH₂PO₄, at pH7.2), and 100 μL of the HRP substrate was added to each well and incubated for 1-60 minutes. Signals were subsequently detected using a plate reader (Excitation wavelength=530 nm, Emission wavelength=590 nm, and cutoff wavelength =570 nm).

Aβ (1-42) peptide [2] = molecular target: T1, Aβ (1-42) peptide; test: ELISA, Aβ(1-42) coated at 1 µg/mL, antibody titrated 3 ng/mL to 20 µg/mL
Protocol: as §1

(EAR)3 peptide = molecular target: T2, (EAR)3 peptide; test: ELISA, (EAR)3 peptide coated, antibody at 100 µg/mL
T2 construct: Synthetic substrate peptide coated on the ELISA plate
T2 peptide: EAREAREAR

T1 sequence (P05067 672-713 limits assumed): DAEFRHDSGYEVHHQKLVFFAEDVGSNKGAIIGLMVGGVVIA

Binder | binding result (Aβ (1-42) peptide [1]) | binding result ((EAR)3 peptide) | also measured
hu3D6-D H1L1 (antibody, V domains shown, It was detected with goat anti-human IgG; also called hu3D6-D HIL1; humanized 3D6-D catabody) VH: EVQLVESGGGLVQPGGSLRLSCAASGFTFSNYGMSWVRQAPDKRLEWVASIRSGGGRTYYSDNVKGRFTISRDNAKNTLYLQMNSLRAEDTALYYCVRYDHYSGSSDYWGQGTLVTVSS VL: not shown | binds | – | –
bapineuzumab (antibody, V domains shown, also called humanized 3D6-Y; hu3D6-Y) VH: EVQLLESGGGLVQPGGSLRLSCAASGFTFSNYGMSWVRQAPGKGLEWVASIRSGGGRTYYSDNVKGRFTISRDNAKNSLYLQMNSLRAEDTALYYCVRYDHYSGSSDYWGQGTLVTVSS VL: YVVMTQSPLSLPVTPGEPASISCKSSQSLLDSDGKTYLNWLLQKPGQSPQRLIYLVSKLDSGVPDRFSGSGSGTDFTLKISRVEAEDVGVYYCWQGTHFPRTFGQGTKVEIKR | – | – | binding result (Aβ (1-42) peptide [2]): binds
hu3D6-D H1L2 (antibody, V domains shown, It was detected with goat anti-human IgG; also called hu3D6-D HIL2; hu3D6-D HISL2) VH: EVQLVESGGGLVQPGGSLRLSCAASGFTFSNYGMSWVRQAPDKRLEWVASIRSGGGRTYYSDNVKGRFTISRDNAKNTLYLQMNSLRAEDTALYYCVRYDHYSGSSDYWGQGTLVTVSS VL: not shown | binds | – | –
3D6-D (antibody, V domains shown, It was detected with anti-human IgG; also called 3D6-D antibody; 3D6-D catabody) VH: EVKLVESGGGLVKPGASLKLSCAASGFTFSNYGMSWVRQNSDKRLEWVASIRSGGGRTYYSDNVKGRFTISRENAKNTLYLQMSSLKSEDTALYYCVRYDHYSGSSDYWGQGTTVTVSS VL: not shown | – | binds | –
3D6 (antibody, V domains shown, Non-catalytic anti-Aβ antibody, the parental murine antibody of bapineuzumab; An IgG1 isotype control and anti-human IgG detection were used; also called 3D6-Y; wild type 3D6 antibody) VH: EVKLVESGGGLVKPGASLKLSCAASGFTFSNYGMSWVRQNSDKRLEWVASIRSGGGRTYYSDNVKGRFTISRENAKNTLYLQMSSLKSEDTALYYCVRYDHYSGSSDYWGQGTTVTVSS VL: not shown | – | binds | –
